Data taken from US20220281948A1 (UNIVERSITY HEALTH NETWORK, published 2022).
Changes are numbered by the printed parent chain. Names may count otherwise.

B1: wild-type DP4 (DPA1*01:03 / DPB1*04:01) on K562 cells (other, human)
MHC II alpha: not shown
MHC II beta: not shown
notes: whole, on cells; also called HLA-DP4
B2: biotinylated recombinant wild-type DP4 (extracellular domains of DPA1*01:03 and wild-type DPB1*04:01, leucine zippers) (other)
MHC II alpha: IKADHVSTYAAFVQTHRPTGEFMFEFDEDEMFYVDLDKKETVWHLEEFGQAFSFEAQGGLANIAILNNNLNTLIQRSNHTQATNDPPEVTVFPKEPVELGQPNTLICHIDKFFPPVLNVTWLCNGELVTEGVAESLFLPRTDYSFHKFHYLTFVPSAEDFYDCRVEHWGLDQPLLKHWEAQEPIQMPETTETGGGGSLEIRAAFLRQRNTALRTEVAELEQEVQRLENEVSQYETRYGPLGGGKGSHHHHHHHHHH
MHC II beta: RATPENYLFQGRQECYAFNGTQRFLERYIYNREEFARFDSDVGEFRAVTELGRPAAEYWNSQKDILEEKRAVPDRMCRHNYELGGPMTLQRRVQPRVNVSPSKKGPLQHHNLLVCHVTDFYPGSIQVRWFLNGQEETAGVVSTNLIRNGDWTFQILVMLEMTPQQGDVYTCQVEHTSLDSPVTVEWKAQSDSARSKGGGGSLEIEAAFLERENTALETRVAELRQRVQRLRNRVSQYRTRYGPLGGGKGSGLNDIFEAQKIEWHE
notes: also called biotinylated wild-type DP4 (ligand)
B3: biotinylated recombinant DP4^[change]/[change] (extracellular domains of DPA1*01:03 and DPB1*04:01 [ (other)
MHC II alpha: B2 MHC II alpha
MHC II beta: B2 MHC II beta with L112W, V141M
B4: V114M (other)
DP alpha chain: IKADHVSTYAAFVQTHRPTGEFMFEFDEDEMFYVDLDKKETVWHLEEFGQAFSFEAQGGLANIAILNNNLNTLIQRSNHTQATNDPPEVTVFPKEPVELGQPNTLICHIDKFFPPVLNVTWLCNGELVTEGVAESLFLPRTDYSFHKFHYLTFVPSAEDFYDCRVEHWGLDQPLLKHWEAQEPIQMPETTET
DP beta chain: RATPENYLFQGRQECYAFNGTQRFLERYIYNREEFARFDSDVGEFRAVTELGRPAAEYWNSQKDILEEKRAVPDRMCRHNYELGGPMTLQRRVQPRVNVSPSKKGPLQHHNLLMCHVTDFYPGSIQVRWFLNGQEETAGVVSTNLIRNGDWTFQILVMLEMTPQQGDVYTCQVEHTSLDSPVTVEWKAQSDSARSK
notes: also called DP4 with the single V114M substitution on K562 cells
B5: M158I (other)
DP alpha chain: B4 DP alpha chain
DP beta chain: B4 DP beta chain with M114V, M158I
notes: also called DP4 with the single M158I substitution on K562 cells
B6: L112W/V114M (other)
DP alpha chain: B4 DP alpha chain
DP beta chain: B4 DP beta chain with L112W
notes: also called DP4 reversion mutant on K562 cells
B7: L112W/M158I (other)
DP alpha chain: B4 DP alpha chain
DP beta chain: B4 DP beta chain with L112W, M114V, M158I
notes: as for B6
B8: V114M/M158I (other)
DP alpha chain: B4 DP alpha chain
DP beta chain: B4 DP beta chain with M158I
notes: as for B6
B9: L112W/V114M/M158I (other)
DP alpha chain: B4 DP alpha chain
DP beta chain: B4 DP beta chain with L112W, M158I
notes: as for B6

How the values were obtained:
[1] = target: T1, soluble CD4 (sCD4): human CD4 extracellular domain fused with a 6×His tag via a GS linker, dimerized with a … (human, UniProt P01730 26-396); assay: flow cytometry, K562 cells
T1 construct: also called soluble CD4 protein; soluble CD4 dimer

[2] = target: T2, recombinant 10× His-tagged CD4 protein (extracellular domain of human CD4, GS linker, 10× histidine tag) (human, UniProt P01730 26-390); assay: biolayer interferometry
T2 construct: also called recombinant CD4; sCD4 (analyte)

[3] = target: T2, recombinant 10× His-tagged CD4 protein …; assay: biolayer interferometry (Octet Red), biotinylated DP4 on streptavidin sensors, CD4 as analyte, steady-state fit
[4] = target: T2, recombinant 10× His-tagged CD4 protein …; assay: BLI KD set against the earlier estimate of KD >2 mM between CD4 and HLA class II
[5] = target: T1, soluble CD4 (sCD4): human CD4 …; assay: flow cytometry, sCD4 MFI of K562 cells

Row | Binder | binding result [5] | further results
1 | B1 | – | binding result [1]: no binding
2 | B2 | – | binding result [2]: no binding (tested: 26 µM)
3 | B3 | – | Kd [3]: 8.9 µM; fold improvement in the binding affinity [4]: ≥ 200 fold
4 | B4 | no binding | –
5 | B5 | no binding | –
6 | B6 | no binding | –
7 | B7 | no binding | –
8 | B8 | no binding | –
9 | B9 | no binding | –
